Series [1] concerns biotinylated CDK2 substrate peptide (Biotin-Ahx-His-His-Ala-Ser-Pro-Arg-Lys).
A further series concerns the target T1, CDK1 (Homo sapiens, UniProt P06493).
T1 construct: a reaction was caused to occur between CDK1 and the anti-CDK1 antibody; endogenous in cells; host or cells: K562 cells (lysate, immunoprecipitated with anti-CDK1 antibody from Operon on protein A Sepharose beads)
As to the kind of experiment: Determination of CDK1 kinase activity using chemical luminescence with the ATP derivative as phosphate-group donor (S/N evaluation). Format: biochemical. Conditions: CDK1 immunoprecipitated from K562 solubilized sample; biotinylated CDK2 substrate peptide; anti-DNP antibody detection; compared to the S/N ratio of Comparative Example 1 (ATPγS as phosphate-group donor). On the procedure:
In a well of a 96-well filter plate (hydrophilic PVDF membrane manufactured by Millipore Corp.), 70 μL of an immunoprecipitation buffer (a buffer containing 0.1 mass % Nonidet NP-40 and 50 mM tris hydrochloride (pH7.4)) was added. Then, with respect to the immunoprecipitation buffer in the well, 20 μL of an antibody solution containing 16 μg of an anti-CDK1 antibody (manufactured by Operon Co., ltd.), and 30 μL of 20 v/v % Sepharose beads (manufactured by GE Healthcare) coated with protein A were added. […]
Next, with respect to the beads that had been cleaned, 50 μL of the CDK substrate solution (composition: 100 ng/μL biotinylated CDK2 substrate peptide (manufactured by Enzo Inc.), the compound 2 represented by formula (x2), 54 mM tris hydrochloride (pH7.4), and 20 mM magnesium chloride) was added to obtain a mixture. The concentration of the compound 2 was a concentration that provided an absorbance of 2 at 362 nm. This absorbance was measured in a manner similar to that in Example 1 (2). […]

T1 sequence (P06493 whole entry): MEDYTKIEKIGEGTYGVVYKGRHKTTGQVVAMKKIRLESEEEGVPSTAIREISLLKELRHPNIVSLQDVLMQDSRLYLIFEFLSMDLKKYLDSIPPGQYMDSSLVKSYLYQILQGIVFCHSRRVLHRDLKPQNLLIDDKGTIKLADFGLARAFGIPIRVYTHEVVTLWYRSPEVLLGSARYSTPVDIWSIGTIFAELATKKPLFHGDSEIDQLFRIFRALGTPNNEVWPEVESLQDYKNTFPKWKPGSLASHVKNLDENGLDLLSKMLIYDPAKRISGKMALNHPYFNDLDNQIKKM
T1 sequence (P14635 whole entry partner): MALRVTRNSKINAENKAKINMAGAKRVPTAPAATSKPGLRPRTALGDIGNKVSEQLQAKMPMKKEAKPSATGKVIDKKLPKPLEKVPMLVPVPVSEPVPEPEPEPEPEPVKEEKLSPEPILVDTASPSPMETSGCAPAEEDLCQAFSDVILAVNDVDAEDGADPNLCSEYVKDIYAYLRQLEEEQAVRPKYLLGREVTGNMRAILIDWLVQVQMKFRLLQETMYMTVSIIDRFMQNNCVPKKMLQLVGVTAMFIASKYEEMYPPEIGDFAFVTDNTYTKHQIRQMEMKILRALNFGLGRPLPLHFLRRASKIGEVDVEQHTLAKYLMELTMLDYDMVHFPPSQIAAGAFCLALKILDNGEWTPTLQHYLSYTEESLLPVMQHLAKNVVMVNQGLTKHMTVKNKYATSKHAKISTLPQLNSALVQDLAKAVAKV

In the case of cyclin-dependent kinase (CDK) 2, the “specific luminescence intensity based on CDK2 activity (ATPγDNP transphosphorylation, ALP labeled anti-DNP antibody, chemiluminescence)” value in series [1] is listed as “the specific luminescence intensity based on CDK2 activity increases in association with an increase in the CDK2 concentration (increase in the solubilized sample concentration)”. For `Nc1ncnc2c1ncn2C1OC(COP(=O)(O)OP(=O)(O)OP(=O)(O)SC2CC(=O)N(CCC(=O)NCCOCCOCCCNC(CCCCNc3ccc([N+](=O)[O-])cc3[N+](=O)[O-])C(=O)O)C2=O)C(O)C1O` (centres unmarked) [compound 4], at CDK1, the “S/N ratio (luminescence intensity A1/luminescence intensity B)” value is recorded as “tended to be high”.
